US20190375824A1 (PANASONIC INTELLECTUAL PROPERTY MANAGEMENT, published 2019)

Target: T1, human serum albumin (human, UniProt P02768 25-609)
T1 construct: Antigen in the SPR assay
Assay: SPR
Experimental: The binding affinity of the provided VHH antibodies to human serum albumin was measured with surface plasmon resonance.

| Binder | Kd [nM] | koff [s⁻¹] | kon [M⁻¹ s⁻¹] |
| --- | --- | --- | --- |
| VHH antibody of SEQ ID NO: 1 (VHH, Isolated from a phage library; also called WT VHH) VHH: QVQLVESGGGLVQAGDSLRLSCAASGRTFSGYAMGWFRQAPGKEREFVARINWSGTLTYYADSVKGRFTGSRDNAKNTVYLQMNSLKPEDTAVYYCAQRGDSGSNYDPSGYSYWGQGTQVTVSS | 261 | 0.371 | 1.42e+06 |
| VHH antibody in which glycine in position 36 of SEQ ID NO: 1 was substituted (SEQ ID NO: 3) (VHH, Text says asparagine at IMGT 36; Expressed in E. coli; also called G36D mutant) VHH: QVQLVESGGGLVQAGDSLRLSCAASGRTFSDYAMGWFRQAPGKEREFVARINWSGTLTYYADSVKGRFTGSRDNAKNTVYLQMNSLKPEDTAVYYCAQRGDSGSNYDPSGYSYWGQGTQVTVSS | 61.4 | 0.125 | 2.04e+06 |
| VHH antibody in which glycine in position 36, arginine in position 50, glycine in position 78, and serine in position 116 of SEQ ID NO: 1 were substituted (SEQ … (VHH, Text says asparagine at IMGT 36; also called G36D/R50L/G78A/S116R mutant) VHH: QVQLVESGGGLVQAGDSLRLSCAASGRTFSDYAMGWFRQAPGKELEFVARINWSGTLTYYADSVKGRFTASRDNAKNTVYLQMNSLKPEDTAVYYCAQRGDSGSNYDPSGYRYWGQGTQVTVSS | 380 | 0.355 | 933000 |
| VHH antibody in which arginine in position 50 of SEQ ID NO: 1 was substituted (SEQ ID NO: 4) (VHH, Text says asparagine at IMGT 50; Expressed in E. coli; also called R50L mutant) VHH: QVQLVESGGGLVQAGDSLRLSCAASGRTFSGYAMGWFRQAPGKELEFVARINWSGTLTYYADSVKGRFTGSRDNAKNTVYLQMNSLKPEDTAVYYCAQRGDSGSNYDPSGYSYWGQGTQVTVSS | 157 | 0.303 | 1.93e+06 |
| VHH antibody in which glycine in position 36 and serine in position 116 of SEQ ID NO: 1 were substituted (SEQ ID NO: 7) (VHH, Text says asparagine at IMGT 36; also called G36D/S116R mutant) VHH: QVQLVESGGGLVQAGDSLRLSCAASGRTFSDYAMGWFRQAPGKEREFVARINWSGTLTYYADSVKGRFTGSRDNAKNTVYLQMNSLKPEDTAVYYCAQRGDSGSNYDPSGYRYWGQGTQVTVSS | 44.7 | 0.0643 | 1.44e+06 |
| VHH antibody in which glycine in position 36, arginine in position 50, and serine in position 116 of SEQ ID NO: 1 were substituted (SEQ ID NO: 9) (VHH, Text says asparagine at IMGT 36; also called G36D/R50L/S116R mutant) VHH: QVQLVESGGGLVQAGDSLRLSCAASGRTFSDYAMGWFRQAPGKELEFVARINWSGTLTYYADSVKGRFTGSRDNAKNTVYLQMNSLKPEDTAVYYCAQRGDSGSNYDPSGYRYWGQGTQVTVSS | 77.9 | 0.0879 | 1.13e+06 |
| VHH antibody in which glycine in position 36, glycine in position 78, and serine in position 116 of SEQ ID NO: 1 were substituted (SEQ ID NO: 10) (VHH, Text says asparagine at IMGT 36; also called G36D/G78A/S116R mutant) VHH: QVQLVESGGGLVQAGDSLRLSCAASGRTFSDYAMGWFRQAPGKEREFVARINWSGTLTYYADSVKGRFTASRDNAKNTVYLQMNSLKPEDTAVYYCAQRGDSGSNYDPSGYRYWGQGTQVTVSS | 365 | 0.411 | 1.13e+06 |
| VHH antibody in which glycine in position 78 of SEQ ID NO: 1 was substituted with alanine (SEQ ID NO: 5) (VHH, Expressed in E. coli; also called G78A mutant) VHH: QVQLVESGGGLVQAGDSLRLSCAASGRTFSGYAMGWFRQAPGKEREFVARINWSGTLTYYADSVKGRFTASRDNAKNTVYLQMNSLKPEDTAVYYCAQRGDSGSNYDPSGYSYWGQGTQVTVSS | 13200 | 0.806 | 61200 |
| VHH antibody in which serine in position 116 of SEQ ID NO: 1 was substituted with arginine (SEQ ID NO: 6) (VHH, Expressed in E. coli; also called S116R mutant) VHH: QVQLVESGGGLVQAGDSLRLSCAASGRTFSGYAMGWFRQAPGKEREFVARINWSGTLTYYADSVKGRFTGSRDNAKNTVYLQMNSLKPEDTAVYYCAQRGDSGSNYDPSGYRYWGQGTQVTVSS | 35.6 | 0.591 | 1.66e+07 |
